# Data published in patent publication US11078465B2, “Alcohol dehydrogenase mutant and application thereof in synthesis of diaryl chiral alcohols” (Jiangnan University, priority 2018, dated 2021).
# Several values for one entry are separate records, joined by “and”; a condition that tells them apart may be missing. Identical values can stand only once.
# B1: E214V: valine for glutamate at position 214 of the alcohol dehydrogenase of SEQ ID No. 2 (protein)
# chain: MSVLISGASGYIAKHIVRVLLEQNYKVIGTVRSQDKADKLLKQYNNPNLSYEIVPEIANLDAFDDIFKKHGKEIKYVIHAASPVNFGAKDLEKDLVIPAINGTKNMFEAIKKYAPDTVERVVMTASYASIMTPHRQNDPTLTLDEETWNPVTEENAYENVFTAYCASKTFAEKEAWKFVKENSDAVKFKLTTIHPSFVFGPQNFDEDVTKKLNVTCEIINGLLHAPFDTKVEKTHFSQFIDVRDVAKTHVLGFQKDELINQRLLLCNGAFSQQDIVNVFNEDFPELKGQFPPEDKDTDLNKGVTGCKIDNEKTKKLLAFEFTPFHKTIHDTVYQILHKEGRV
# modifications: Protein translated from synthetic DNA
# B2: E214R: arginine for glutamate at position 214 of the alcohol dehydrogenase of SEQ ID No. 2 (protein)
# chain: MSVLISGASGYIAKHIVRVLLEQNYKVIGTVRSQDKADKLLKQYNNPNLSYEIVPEIANLDAFDDIFKKHGKEIKYVIHAASPVNFGAKDLEKDLVIPAINGTKNMFEAIKKYAPDTVERVVMTASYASIMTPHRQNDPTLTLDEETWNPVTEENAYENVFTAYCASKTFAEKEAWKFVKENSDAVKFKLTTIHPSFVFGPQNFDEDVTKKLNRTCEIINGLLHAPFDTKVEKTHFSQFIDVRDVAKTHVLGFQKDELINQRLLLCNGAFSQQDIVNVFNEDFPELKGQFPPEDKDTDLNKGVTGCKIDNEKTKKLLAFEFTPFHKTIHDTVYQILHKEGRV
# modifications: Protein translated from synthetic DNA
# B3: E214N: asparagine for glutamate at position 214 of the alcohol dehydrogenase of SEQ ID No. 2 (protein)
# chain: MSVLISGASGYIAKHIVRVLLEQNYKVIGTVRSQDKADKLLKQYNNPNLSYEIVPEIANLDAFDDIFKKHGKEIKYVIHAASPVNFGAKDLEKDLVIPAINGTKNMFEAIKKYAPDTVERVVMTASYASIMTPHRQNDPTLTLDEETWNPVTEENAYENVFTAYCASKTFAEKEAWKFVKENSDAVKFKLTTIHPSFVFGPQNFDEDVTKKLNNTCEIINGLLHAPFDTKVEKTHFSQFIDVRDVAKTHVLGFQKDELINQRLLLCNGAFSQQDIVNVFNEDFPELKGQFPPEDKDTDLNKGVTGCKIDNEKTKKLLAFEFTPFHKTIHDTVYQILHKEGRV
# modifications: Protein translated from synthetic DNA
# B4: E214G: glycine for glutamate at position 214 of the alcohol dehydrogenase of SEQ ID No. 2 (protein)
# chain: MSVLISGASGYIAKHIVRVLLEQNYKVIGTVRSQDKADKLLKQYNNPNLSYEIVPEIANLDAFDDIFKKHGKEIKYVIHAASPVNFGAKDLEKDLVIPAINGTKNMFEAIKKYAPDTVERVVMTASYASIMTPHRQNDPTLTLDEETWNPVTEENAYENVFTAYCASKTFAEKEAWKFVKENSDAVKFKLTTIHPSFVFGPQNFDEDVTKKLNGTCEIINGLLHAPFDTKVEKTHFSQFIDVRDVAKTHVLGFQKDELINQRLLLCNGAFSQQDIVNVFNEDFPELKGQFPPEDKDTDLNKGVTGCKIDNEKTKKLLAFEFTPFHKTIHDTVYQILHKEGRV
# modifications: Protein translated from synthetic DNA
# B5: E214Q: glutamine for glutamate at position 214 of the alcohol dehydrogenase of SEQ ID No. 2 (protein)
# chain: MSVLISGASGYIAKHIVRVLLEQNYKVIGTVRSQDKADKLLKQYNNPNLSYEIVPEIANLDAFDDIFKKHGKEIKYVIHAASPVNFGAKDLEKDLVIPAINGTKNMFEAIKKYAPDTVERVVMTASYASIMTPHRQNDPTLTLDEETWNPVTEENAYENVFTAYCASKTFAEKEAWKFVKENSDAVKFKLTTIHPSFVFGPQNFDEDVTKKLNQTCEIINGLLHAPFDTKVEKTHFSQFIDVRDVAKTHVLGFQKDELINQRLLLCNGAFSQQDIVNVFNEDFPELKGQFPPEDKDTDLNKGVTGCKIDNEKTKKLLAFEFTPFHKTIHDTVYQILHKEGRV
# modifications: Protein translated from synthetic DNA
# B6: S237A: alcohol dehydrogenase mutant obtained by random mutation screening (protein)
# chain: MSVLISGASGYIAKHIVRVLLEQNYKVIGTVRSQDKADKLLKQYNNPNLSYEIVPEIANLDAFDDIFKKHGKEIKYVIHAASPVNFGAKDLEKDLVIPAINGTKNMFEAIKKYAPDTVERVVMTASYASIMTPHRQNDPTLTLDEETWNPVTEENAYENVFTAYCASKTFAEKEAWKFVKENSDAVKFKLTTIHPSFVFGPQNFDEDVTKKLNITCEIINGLLHAPFDTKVEKTHFAQFIDVRDVAKTHVLGFQKDELINQRLLLCNGAFSQQDIVNVFNEDFPELKGQFPPEDKDTDLNKGVTGCKIDNEKTKKLLAFEFTPFHKTIHDTVYQILHKEGRV
# modifications: Protein translated from synthetic DNA
# notes: alcohol dehydrogenase mutant obtained by random mutation screening
# B7: E214I: isoleucine for glutamate at position 214 of the alcohol dehydrogenase of SEQ ID No. 2 (protein)
# chain: MSVLISGASGYIAKHIVRVLLEQNYKVIGTVRSQDKADKLLKQYNNPNLSYEIVPEIANLDAFDDIFKKHGKEIKYVIHAASPVNFGAKDLEKDLVIPAINGTKNMFEAIKKYAPDTVERVVMTASYASIMTPHRQNDPTLTLDEETWNPVTEENAYENVFTAYCASKTFAEKEAWKFVKENSDAVKFKLTTIHPSFVFGPQNFDEDVTKKLNITCEIINGLLHAPFDTKVEKTHFSQFIDVRDVAKTHVLGFQKDELINQRLLLCNGAFSQQDIVNVFNEDFPELKGQFPPEDKDTDLNKGVTGCKIDNEKTKKLLAFEFTPFHKTIHDTVYQILHKEGRV
# modifications: Protein translated from synthetic DNA
# B8: E214S: serine for glutamate at position 214 of the alcohol dehydrogenase of SEQ ID No. 2 (protein)
# chain: MSVLISGASGYIAKHIVRVLLEQNYKVIGTVRSQDKADKLLKQYNNPNLSYEIVPEIANLDAFDDIFKKHGKEIKYVIHAASPVNFGAKDLEKDLVIPAINGTKNMFEAIKKYAPDTVERVVMTASYASIMTPHRQNDPTLTLDEETWNPVTEENAYENVFTAYCASKTFAEKEAWKFVKENSDAVKFKLTTIHPSFVFGPQNFDEDVTKKLNSTCEIINGLLHAPFDTKVEKTHFSQFIDVRDVAKTHVLGFQKDELINQRLLLCNGAFSQQDIVNVFNEDFPELKGQFPPEDKDTDLNKGVTGCKIDNEKTKKLLAFEFTPFHKTIHDTVYQILHKEGRV
# modifications: Protein translated from synthetic DNA
# B9: S237C: alcohol dehydrogenase mutant obtained by random mutation screening (protein)
# chain: MSVLISGASGYIAKHIVRVLLEQNYKVIGTVRSQDKADKLLKQYNNPNLSYEIVPEIANLDAFDDIFKKHGKEIKYVIHAASPVNFGAKDLEKDLVIPAINGTKNMFEAIKKYAPDTVERVVMTASYASIMTPHRQNDPTLTLDEETWNPVTEENAYENVFTAYCASKTFAEKEAWKFVKENSDAVKFKLTTIHPSFVFGPQNFDEDVTKKLNGTCEIINGLLHAPFDTKVEKTHFCQFIDVRDVAKTHVLGFQKDELINQRLLLCNGAFSQQDIVNVFNEDFPELKGQFPPEDKDTDLNKGVTGCKIDNEKTKKLLAFEFTPFHKTIHDTVYQILHKEGRV
# modifications: Protein translated from synthetic DNA
# notes: as for B6
# How the values were obtained:
# [1] = Kinetic analysis of alcohol dehydrogenase and mutants (NADPH oxidation, 340 nm, double reciprocal curve); type: biochemical; settings: substrate CPMK
# Experimental: Adopting a total reaction system of 200 μL, including: 1.0 mM NADPH, 1.0 mM substrate CPMK and sodium phosphate buffer (PBS, 100 mM, pH 7.0), fully and evenly mixing, maintaining at 30° C. for 2 min, adding an appropriate amount of enzyme solution, and detecting the change in light absorption at 340 nm.
# The enzyme activity was calculated by the following formula: Enzyme activity (U)=EW×V×10^3/(6220×I);
# in the formula, EW is the change in absorbance at 340 nm in 1 min; V is the volume of a reaction solution in mL; 6220 is the molar extinction coefficient of NADPH in L/mol·cm); and 1 is the optical path distance in cm. One activity unit (U) corresponds to the amount of enzyme required to catalyze the oxidation of 1 μmol NADPH per minute under the above conditions.
# A column used for purification was a nickel affinity column HisTrap FF crude, and purification was achieved through affinity chromatography using a histidine tag on recombinant protein. The nickel column was equilibrated with a solution A first, a crude enzyme solution was loaded, a penetrating peak was further eluted off using the solution A, and after equilibrium, a solution B (20 mM sodium phosphate, 500 mM NaCl, and 1000 mM imidazole, pH 7.4) was used for gradient elution to elute off the recombinant protein bound to the nickel column, so as to obtain the recombinant alcohol dehydrogenase mutant. The purified protein was subjected to activity measurement (CPMK as substrate, and NADPH as coenzyme) and SDS-PAGE analysis. […] The purified alcohol dehydrogenase protein was then replaced into a Tris-HCl (100 mM, pH 7.0) buffer using a Hi Trap Desalting column (GE Healthcare).
# The activity of KpADH at different substrate concentrations and coenzyme concentrations was determined, and a double reciprocal curve was made based on the reciprocal of activity and substrate concentration to calculate kinetic parameters.
# [2] = Stereoselectivity (ee) of CPMK reduction, chiral liquid chromatography; type: biochemical; settings: for ee % / e.e.: product configuration in brackets
# Experimental: In an embodiment of the present disclosure, a chromatographic analysis method is as follows: 100 μL of reactant liquid is taken, 500 μL of ethyl acetate is added, shaking is performed for 1-2 min, centrifugation is performed at 12,000 rpm for 2-5 min, supernatant liquid is taken into a centrifuge tube, after an organic phase naturally volatilizes completely, 500 μL of chromatographically pure ethanol is added, and chiral liquid chromatography and gas chromatography are performed to analyze the transformation rate and the ee value.
# Method for determining optical purity ee:
# As: molar concentration of (S)-CPMA obtained by liquid chromatography; and AR: molar concentration of (R)-CPMA obtained by liquid chromatography.
molecule,measurement,setting,value
B1,Kcat,[1],8.91 ± 0.48 s⁻¹
same,Km,[1],420 µM
same,Vmax,[1],13.36 ± 0.89 µM/min/mg
same,"ee value, (R)-CPMA",[2]; R configuration product,91% and 95.3%
same,ee %,[2],95.3 (R) %
B2,Kcat,[1],15.85 ± 0.49 s⁻¹
same,Km,[1],980 ± 80 µM
same,Vmax,[1],23.77 ± 0.90 µM/min/mg
same,ee %,[2],42.5 (R) %
B3,Kcat,[1],22.90 ± 1.12 s⁻¹
same,Km,[1],420 ± 60 µM
same,Vmax,[1],34.35 ± 2.05 µM/min/mg
same,ee %,[2],58.1 (R) %
B4,Kcat,[1],5.5 ± 0.10 s⁻¹
same,Km,[1],250 µM
same,Vmax,[1],8.26 ± 0.15 µM/min/mg
same,configuration of product / stereoselectivity in words,[2],inversion from an R configuration to an S configuration
same,e.e.,[2],25.6 (S)
same,ee %,[2],25.6 (S) %
B5,Kcat,[1],16.26 ± 1.33 s⁻¹
same,Km,[1],1300 ± 200 µM
same,Vmax,[1],24.4 ± 0.20 µM/min/mg
same,ee %,[2],58.5 (R) %
B6,e.e.,[2],96.1 (R)
B7,Kcat,[1],8.77 ± 0.23 s⁻¹
same,Km,[1],410 ± 40 µM
same,Vmax,[1],13.15 ± 0.43 µM/min/mg
same,ee %,[2],93.0 (R) %
B8,Kcat,[1],11.86 ± 0.48 s⁻¹
same,Km,[1],540 ± 70 µM
same,Vmax,[1],17.79 ± 0.88 µM/min/mg
same,ee %,[2],14.2 (R) %
B9,e.e.,[2],27 (R)
